From publication PMC7921410, “Structure of mammalian Mediator complex reveals Tail module architecture and interaction with a conserved core” (Nature Communications, 2021)

T1: MED24 (mouse (Mus musculus; endogenous in CH12), UniProt Q99K74 1-987)
T1 construct: MED24, Mus musculus, endogenous lower Tail subunit of Mediator; source: endogenous, CH12 mouse B lymphoma nuclear extract; immunopurified as part of Mediator (FLAG M2 agarose, FLAG peptide elution)
T1 sequence (looked up): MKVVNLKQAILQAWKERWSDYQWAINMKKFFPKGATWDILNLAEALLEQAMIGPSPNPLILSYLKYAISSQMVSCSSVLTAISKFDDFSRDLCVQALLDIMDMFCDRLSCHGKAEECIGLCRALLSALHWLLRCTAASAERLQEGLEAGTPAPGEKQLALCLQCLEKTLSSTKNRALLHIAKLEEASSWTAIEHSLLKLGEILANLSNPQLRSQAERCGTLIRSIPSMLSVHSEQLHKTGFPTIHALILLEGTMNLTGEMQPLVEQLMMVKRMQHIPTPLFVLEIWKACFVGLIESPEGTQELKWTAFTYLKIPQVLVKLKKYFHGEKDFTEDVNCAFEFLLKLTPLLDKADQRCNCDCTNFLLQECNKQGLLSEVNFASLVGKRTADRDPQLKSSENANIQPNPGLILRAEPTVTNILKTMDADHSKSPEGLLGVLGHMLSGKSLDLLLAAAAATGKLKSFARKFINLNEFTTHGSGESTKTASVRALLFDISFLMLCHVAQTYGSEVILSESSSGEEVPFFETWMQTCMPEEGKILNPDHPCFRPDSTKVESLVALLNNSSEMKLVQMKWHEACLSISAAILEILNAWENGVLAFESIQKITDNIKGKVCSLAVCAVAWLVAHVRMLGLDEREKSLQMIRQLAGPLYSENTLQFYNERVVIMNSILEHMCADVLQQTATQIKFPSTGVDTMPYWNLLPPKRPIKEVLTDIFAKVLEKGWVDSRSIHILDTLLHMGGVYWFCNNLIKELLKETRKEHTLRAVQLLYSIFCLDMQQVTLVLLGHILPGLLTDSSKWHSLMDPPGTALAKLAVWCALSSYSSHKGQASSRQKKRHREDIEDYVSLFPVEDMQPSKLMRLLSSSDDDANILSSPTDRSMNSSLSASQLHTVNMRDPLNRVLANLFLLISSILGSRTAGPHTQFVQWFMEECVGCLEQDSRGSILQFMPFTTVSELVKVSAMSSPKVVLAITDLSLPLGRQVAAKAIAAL

B1: MED25 (natural protein, mouse (Mus musculus; endogenous in CH12), UniProt Q8VCB2 1-745, looked up)
chain: MVPGSEGPARAGGLVADVVFVIEGTANLGPYFEELRKHYLLPAIEYFNGGPPAETDFGGDYGGTQYSLVVFNTVDCAPESYVQCHAPTSSAYEFVTWLDGIKFMGGGGESCSLIAEGLSTALQLFDDFKKMREQIGQTHRVCLLICNSPPYLLPAVESTTYSGCTTESLVQKIGERGIHFSIVSPRKLPALRLLFEKAAPPALLEPLQQPADVSQDPRHMVLVRGLVLPVGGSSTSGSLQTKQAVPLPPAPASAATLSAAPPQALPPVPPQYQVPGNLSAAQVAAQNAVEAAKSQKAGLGPRFSPINPLQQAAPGVGPPFSQAPAPPLAPVPPGAPKPPPASQPSLVSTVAPGPVLAAPAQPGAPSLAGTVTPGGVNGPSAAQLGGPALGGQQSVSNKLLAWSGVLEWQEKPKPASVDANTKLTRSLPCQVYVNHGENLKTEQWPQKLIMQLIPQQLLTTLGPLFRNSRMVQFHFTNKDLESLKGLYRIMGNGFAGCVHFPHTAPCEVRVLMLLYSSKKKIFMGLIPYDQSGFVNGIRQVITNHKQVQQQKLEQQRGMGAQQAPPVLGPILEEQARPPQNLLQLRAPQPQPQGAVGASAATGQPQPQGATQAPTGAPQGPPGAAPGPPPSGPILRPQNPGANPQLRSLLLNPAPPQTGVPPPQASLHHLQPPGAPTLLPPHQSMGQPQLGPQLLHPPPAQSWPTQLPQRAPLPGQMLLSGGPRGPVPQPGLQPSVMEDDILMDLI
notes: MED25, Mus musculus, endogenous lower Tail subunit of Mediator; only the N-terminal von Willebrand domain (aa 15-216) is seen in the map; The 3×FLAG tag stands on MED25 only in the MED25-FLAG cell line; in the MED19-FLAG line MED25 is untagged; Images from the datasets were combined for the final map; also called MED25-FLAG; source: endogenous, CH12 mouse B lymphoma nuclear extract; …
B2: MED15 (natural protein, mouse (Mus musculus; endogenous in CH12), UniProt Q924H2 1-789, looked up)
chain: MDVSGQETDWRSAAFRQKLVSQIEDAMRKAGVAHSKSSKDMESHVFLKAKTRDEYLSLVARLIIHFRDIHNKKSQASVSDPMNALQSLTGGPTPGAAGIGMPPRGPGQSLGGMGGLGAMGQPLPLSGQPPPGTSGMAPHGMAVVSTATPQTQLQLQQVALQQQQQQQQQQQFQQQQAALQQQQQQQQQQQQQQQFQAQQNAMQQQFQAVVQQQQLQQQQQQQHLIKLHHQSQQQQIQQQQLQRMAQLQLQQQQQQQQQQALQAQPPMQQPSMQQPQPPPSQALPQQLSQLHHPQHHQPPPQAQQSPIAQNQPPQIPPQSQSQPLVSQAQALPGPMLYAAQQQLKFVRAPMVVQQPQVQPQVQQVQPQVQPQAAVQAAQSAQMVAPGVQMIAEALAQGGMHVRARFPPTSTMSAGPSSSISLGGQPTTQVSQSSLTMLSSPSPGQQVQTPQSMPPPPQPSPQPGSQPNSNVSSGPAPSPSSFLPSPSPQPSQSPVTARTPQNFSVPSPGPLNTPVNPSSVMSPAGSSQAEEQQYLDKLKQLSKYIEPLRRMINKIDKNEDRKKDLSKMKSLLDILTDPSKRCPLKTLQKCEIALEKLKNDMAVPTPPPPPVLPTKQQDLCQPLLDAVLANIRSPVFNHSLYRTFVPAMMAIHGPPIVSPVVCSRKRRFEEDERQSIPNVLQGEVARLDPKFLVNLDPSHCSNNGTVHLICKLDDKDLPSVPPLELSVPADYPAQSPMWIDRQWQYDANPFLQSVHRCMTSRLLQLPDKHSVTALLNTWAQSIHQACLSAA
notes: MED15, Mus musculus, endogenous lower Tail subunit of Mediator; only the C-terminal portion (from residue 620) is seen in the map; source: endogenous, CH12 mouse B lymphoma nuclear extract; immunopurified as part of Mediator (FLAG M2 agarose, FLAG peptide elution)

Target: T1, MED24
Test: cryo-EM structure; endogenous mouse Mediator immunopurified from CH12 nuclear extract through 3×FLAG-MED19 or 3×FLAG-MED25; eluted in 50 mM HEPES pH 7.9, 100 mM KCl, 5% glycerol, 1 mM EDTA, 0.005% NP-40; map at 4.0 Å overall, focused refinement of the MED1 and knob/hook ends (6-10 Å)
Conditions: both partners purified

Binder | binding result
B1 | binds
B2 | binds
